Values of other authors, collected in PMC10361719.

Target: Gag (Human immunodeficiency virus 1) (UniProt O93182)

Gag, sequence (O93182 2-500): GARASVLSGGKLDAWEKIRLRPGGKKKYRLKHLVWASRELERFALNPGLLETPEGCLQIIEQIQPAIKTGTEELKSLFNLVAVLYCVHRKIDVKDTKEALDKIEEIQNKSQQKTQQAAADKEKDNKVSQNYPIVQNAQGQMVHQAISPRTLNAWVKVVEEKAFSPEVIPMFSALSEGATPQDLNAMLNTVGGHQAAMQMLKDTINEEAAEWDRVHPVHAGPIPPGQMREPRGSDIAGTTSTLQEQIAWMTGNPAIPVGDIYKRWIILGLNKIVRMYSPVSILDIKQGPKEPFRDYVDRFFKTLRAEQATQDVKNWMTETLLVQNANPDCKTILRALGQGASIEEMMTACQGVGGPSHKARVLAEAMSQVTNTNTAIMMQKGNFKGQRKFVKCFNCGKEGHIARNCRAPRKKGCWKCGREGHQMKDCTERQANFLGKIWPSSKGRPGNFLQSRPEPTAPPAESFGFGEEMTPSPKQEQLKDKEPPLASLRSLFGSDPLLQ

Substance: Gag (from UniProt O93182)
- Kd: 5.5 µM
